{"source": "the Immune Epitope Database (IEDB)", "key": {"HLA-A*02:01": {"biological_target": "HLA-A*02:01", "assay": "IEDB peptide-MHC binding, purified MHC/direct/fluorescence; filed as Kd, often an IC50 or EC50 that approximates it; ≥ and ≤ were set here for values at or beyond the usual limits of such assays", "conditions": "source organism: Burkholderia mallei ATCC 23344"}, "HLA-A*02:16": {"biological_target": "HLA-A*02:16", "assay": "IEDB peptide-MHC binding, purified MHC/direct/fluorescence; filed as Kd, often an IC50 or EC50 that approximates it; ≥ and ≤ were set here for values at or beyond the usual limits of such assays", "conditions": "source organism: Burkholderia mallei ATCC 23344"}, "HLA-A*03:01": {"biological_target": "HLA-A*03:01", "assay": "IEDB peptide-MHC binding, purified MHC/direct/fluorescence; filed as Kd, often an IC50 or EC50 that approximates it; ≥ and ≤ were set here for values at or beyond the usual limits of such assays", "conditions": "source organism: Burkholderia mallei ATCC 23344"}, "HLA-A*23:01": {"biological_target": "HLA-A*23:01", "assay": "IEDB peptide-MHC binding, purified MHC/direct/fluorescence; filed as Kd, often an IC50 or EC50 that approximates it; ≥ and ≤ were set here for values at or beyond the usual limits of such assays", "conditions": "source organism: Burkholderia mallei ATCC 23344"}, "HLA-A*24:03": {"biological_target": "HLA-A*24:03", "assay": "IEDB peptide-MHC binding, purified MHC/direct/fluorescence; filed as Kd, often an IC50 or EC50 that approximates it; ≥ and ≤ were set here for values at or beyond the usual limits of such assays", "conditions": "source organism: Burkholderia mallei ATCC 23344"}, "HLA-A*29:02": {"biological_target": "HLA-A*29:02", "assay": "IEDB peptide-MHC binding, purified MHC/direct/fluorescence; filed as Kd, often an IC50 or EC50 that approximates it; ≥ and ≤ were set here for values at or beyond the usual limits of such assays", "conditions": "source organism: Burkholderia mallei ATCC 23344"}, "HLA-A*68:02": {"biological_target": "HLA-A*68:02", "assay": "IEDB peptide-MHC binding, purified MHC/direct/fluorescence; filed as Kd, often an IC50 or EC50 that approximates it; ≥ and ≤ were set here for values at or beyond the usual limits of such assays", "conditions": "source organism: Burkholderia mallei ATCC 23344"}, "HLA-B*15:01": {"biological_target": "HLA-B*15:01", "assay": "IEDB peptide-MHC binding, purified MHC/direct/fluorescence; filed as Kd, often an IC50 or EC50 that approximates it; ≥ and ≤ were set here for values at or beyond the usual limits of such assays", "conditions": "source organism: Burkholderia mallei ATCC 23344"}, "HLA-B*15:17": {"biological_target": "HLA-B*15:17", "assay": "IEDB peptide-MHC binding, purified MHC/direct/fluorescence; filed as Kd, often an IC50 or EC50 that approximates it; ≥ and ≤ were set here for values at or beyond the usual limits of such assays", "conditions": "source organism: Burkholderia mallei ATCC 23344"}, "HLA-B*18:01": {"biological_target": "HLA-B*18:01", "assay": "IEDB peptide-MHC binding, purified MHC/direct/fluorescence; filed as Kd, often an IC50 or EC50 that approximates it; ≥ and ≤ were set here for values at or beyond the usual limits of such assays", "conditions": "source organism: Burkholderia mallei ATCC 23344"}, "HLA-B*27:03": {"biological_target": "HLA-B*27:03", "assay": "IEDB peptide-MHC binding, purified MHC/direct/fluorescence; filed as Kd, often an IC50 or EC50 that approximates it; ≥ and ≤ were set here for values at or beyond the usual limits of such assays", "conditions": "source organism: Burkholderia mallei ATCC 23344"}, "HLA-B*39:01": {"biological_target": "HLA-B*39:01", "assay": "IEDB peptide-MHC binding, purified MHC/direct/fluorescence; filed as Kd, often an IC50 or EC50 that approximates it; ≥ and ≤ were set here for values at or beyond the usual limits of such assays", "conditions": "source organism: Burkholderia mallei ATCC 23344"}, "HLA-B*46:01": {"biological_target": "HLA-B*46:01", "assay": "IEDB peptide-MHC binding, purified MHC/direct/fluorescence; filed as Kd, often an IC50 or EC50 that approximates it; ≥ and ≤ were set here for values at or beyond the usual limits of such assays", "conditions": "source organism: Burkholderia mallei ATCC 23344"}, "HLA-B*51:01": {"biological_target": "HLA-B*51:01", "assay": "IEDB peptide-MHC binding, purified MHC/direct/fluorescence; filed as Kd, often an IC50 or EC50 that approximates it; ≥ and ≤ were set here for values at or beyond the usual limits of such assays", "conditions": "source organism: Burkholderia mallei ATCC 23344"}, "HLA-B*57:01": {"biological_target": "HLA-B*57:01", "assay": "IEDB peptide-MHC binding, purified MHC/direct/fluorescence; filed as Kd, often an IC50 or EC50 that approximates it; ≥ and ≤ were set here for values at or beyond the usual limits of such assays", "conditions": "source organism: Burkholderia mallei ATCC 23344"}, "HLA-A*01:01": {"biological_target": "HLA-A*01:01", "assay": "IEDB peptide-MHC binding, purified MHC/competitive/fluorescence; filed as Kd, often an IC50 or EC50 that approximates it; ≥ and ≤ were set here for values at or beyond the usual limits of such assays", "conditions": "source organism: Burkholderia mallei SAVP1"}, "HLA-A*11:01": {"biological_target": "HLA-A*11:01", "assay": "IEDB peptide-MHC binding, purified MHC/competitive/fluorescence; filed as Kd, often an IC50 or EC50 that approximates it; ≥ and ≤ were set here for values at or beyond the usual limits of such assays", "conditions": "source organism: Burkholderia mallei SAVP1"}, "HLA-A*30:01": {"biological_target": "HLA-A*30:01", "assay": "IEDB peptide-MHC binding, purified MHC/competitive/fluorescence; filed as Kd, often an IC50 or EC50 that approximates it; ≥ and ≤ were set here for values at or beyond the usual limits of such assays", "conditions": "source organism: Burkholderia mallei SAVP1"}, "HLA-A*30:02": {"biological_target": "HLA-A*30:02", "assay": "IEDB peptide-MHC binding, purified MHC/competitive/fluorescence; filed as Kd, often an IC50 or EC50 that approximates it; ≥ and ≤ were set here for values at or beyond the usual limits of such assays", "conditions": "source organism: Burkholderia mallei SAVP1"}, "HLA-A*66:01": {"biological_target": "HLA-A*66:01", "assay": "IEDB peptide-MHC binding, purified MHC/competitive/fluorescence; filed as Kd, often an IC50 or EC50 that approximates it; ≥ and ≤ were set here for values at or beyond the usual limits of such assays", "conditions": "source organism: Burkholderia mallei SAVP1"}, "HLA-B*07:02": {"biological_target": "HLA-B*07:02", "assay": "IEDB peptide-MHC binding, purified MHC/competitive/fluorescence; filed as Kd, often an IC50 or EC50 that approximates it; ≥ and ≤ were set here for values at or beyond the usual limits of such assays", "conditions": "source organism: Burkholderia mallei SAVP1"}, "HLA-B*08:01": {"biological_target": "HLA-B*08:01", "assay": "IEDB peptide-MHC binding, purified MHC/competitive/fluorescence; filed as Kd, often an IC50 or EC50 that approximates it; ≥ and ≤ were set here for values at or beyond the usual limits of such assays", "conditions": "source organism: Burkholderia mallei SAVP1"}, "HLA-B*14:02": {"biological_target": "HLA-B*14:02", "assay": "IEDB peptide-MHC binding, purified MHC/competitive/fluorescence; filed as Kd, often an IC50 or EC50 that approximates it; ≥ and ≤ were set here for values at or beyond the usual limits of such assays", "conditions": "source organism: Burkholderia mallei SAVP1"}, "HLA-B*27:05": {"biological_target": "HLA-B*27:05", "assay": "IEDB peptide-MHC binding, purified MHC/competitive/fluorescence; filed as Kd, often an IC50 or EC50 that approximates it; ≥ and ≤ were set here for values at or beyond the usual limits of such assays", "conditions": "source organism: Burkholderia mallei SAVP1"}, "HLA-B*40:01": {"biological_target": "HLA-B*40:01", "assay": "IEDB peptide-MHC binding, purified MHC/competitive/fluorescence; filed as Kd, often an IC50 or EC50 that approximates it; ≥ and ≤ were set here for values at or beyond the usual limits of such assays", "conditions": "source organism: Burkholderia mallei SAVP1"}, "HLA-B*44:02": {"biological_target": "HLA-B*44:02", "assay": "IEDB peptide-MHC binding, purified MHC/competitive/fluorescence; filed as Kd, often an IC50 or EC50 that approximates it; ≥ and ≤ were set here for values at or beyond the usual limits of such assays", "conditions": "source organism: Burkholderia mallei SAVP1"}, "HLA-B*53:01": {"biological_target": "HLA-B*53:01", "assay": "IEDB peptide-MHC binding, purified MHC/competitive/fluorescence; filed as Kd, often an IC50 or EC50 that approximates it; ≥ and ≤ were set here for values at or beyond the usual limits of such assays", "conditions": "source organism: Burkholderia mallei SAVP1"}, "HLA-B*58:01": {"biological_target": "HLA-B*58:01", "assay": "IEDB peptide-MHC binding, purified MHC/competitive/fluorescence; filed as Kd, often an IC50 or EC50 that approximates it; ≥ and ≤ were set here for values at or beyond the usual limits of such assays", "conditions": "source organism: Burkholderia mallei SAVP1"}}, "data": [{"sequence": "NVMDPMHGA", "values": [{"measurement": "Kd", "setting": "HLA-A*02:01", "result": "≥ 20", "unit": "µM"}, {"measurement": "Kd", "setting": "HLA-A*02:16", "result": "≥ 20", "unit": "µM"}, {"measurement": "Kd", "setting": "HLA-A*03:01", "result": "≥ 20", "unit": "µM"}, {"measurement": "Kd", "setting": "HLA-A*23:01", "result": "≥ 20", "unit": "µM"}, {"measurement": "Kd", "setting": "HLA-A*24:03", "result": "≥ 20", "unit": "µM"}, {"measurement": "Kd", "setting": "HLA-A*29:02", "result": "≥ 20", "unit": "µM"}, {"measurement": "Kd", "setting": "HLA-A*68:02", "result": "≤ 0.001", "unit": "µM"}, {"measurement": "Kd", "setting": "HLA-B*15:01", "result": "≥ 20", "unit": "µM"}, {"measurement": "Kd", "setting": "HLA-B*15:17", "result": "≥ 20", "unit": "µM"}, {"measurement": "Kd", "setting": "HLA-B*18:01", "result": "≥ 20", "unit": "µM"}, {"measurement": "Kd", "setting": "HLA-B*27:03", "result": "≥ 20", "unit": "µM"}, {"measurement": "Kd", "setting": "HLA-B*39:01", "result": "≥ 20", "unit": "µM"}, {"measurement": "Kd", "setting": "HLA-B*46:01", "result": "≥ 20", "unit": "µM"}, {"measurement": "Kd", "setting": "HLA-B*51:01", "result": "≥ 20", "unit": "µM"}, {"measurement": "Kd", "setting": "HLA-B*57:01", "result": "≥ 20", "unit": "µM"}, {"measurement": "Kd", "setting": "HLA-A*01:01", "result": "≥ 5", "unit": "µM"}, {"measurement": "Kd", "setting": "HLA-A*11:01", "result": "≥ 5", "unit": "µM"}, {"measurement": "Kd", "setting": "HLA-A*30:01", "result": "≥ 5", "unit": "µM"}, {"measurement": "Kd", "setting": "HLA-A*30:02", "result": "≥ 5", "unit": "µM"}, {"measurement": "Kd", "setting": "HLA-A*66:01", "result": "≥ 5", "unit": "µM"}, {"measurement": "Kd", "setting": "HLA-B*07:02", "result": "≥ 5", "unit": "µM"}, {"measurement": "Kd", "setting": "HLA-B*08:01", "result": "≥ 5", "unit": "µM"}, {"measurement": "Kd", "setting": "HLA-B*14:02", "result": "≥ 5", "unit": "µM"}, {"measurement": "Kd", "setting": "HLA-B*27:05", "result": "≥ 5", "unit": "µM"}, {"measurement": "Kd", "setting": "HLA-B*40:01", "result": "≥ 5", "unit": "µM"}, {"measurement": "Kd", "setting": "HLA-B*44:02", "result": "≥ 5", "unit": "µM"}, {"measurement": "Kd", "setting": "HLA-B*53:01", "result": "≥ 5", "unit": "µM"}, {"measurement": "Kd", "setting": "HLA-B*58:01", "result": "≥ 5", "unit": "µM"}]}]}
